Experimental findings from PMC7792996, “Crystal structure of death-associated protein kinase 1 in complex with the dietary compound resveratrol” (IUCrJ, 2021) are described below.

Broadly, the Km is the substrate concentration at which the rate is half of its maximum. The term kcat denotes the number of substrate molecules converted per active site and unit of time at saturation. In general, kcat/Km refers to the turnover number divided by the Michaelis constant.

Substrate in this series: Nc1ncnc2c1ncn2[C@@H]1O[C@H](COP(=O)(O)OP(=O)(O)OP(=O)(O)O)[C@@H](O)[C@H]1O
Put plainly: intrinsic ATPase kinetics by malachite green assay (Km). The conditions noted are these: Mg2+ ([…] MgCl2 in the assay) ATP-binding site. The class given is biochemical, Homo sapiens.

B1: Death-associated protein kinase 1 (DAPK1) (Homo sapiens) (protein)
chain: MTVFRQENVDDYYDTGEELGSGQFAVVKKCREKSTGLQYAAKFIKKRRTKSSRRGVSREDIEREVSILKEIQHPNVITLHEVYENKTDVILILELVAGGELFDFLAEKESLTEEEATEFLKQILNGVYYLHSLQIAHFDLKPENIMLLDRNVPKPRIKIIDFGLAHKIDFGNEFKNIFGTPEFVAPEIVNYEPLGLEADMWSIGVITYILLSGASPFLGDTKQETLANVSAVNYEFEDEYFSNTSALAKDFIRRLLVKDPKKRMTIQDSLQHPWIKPKDTQQALS
notes: catalytic domain, residues 1–285
Consider B1, for which the Michaelis-Menten constant (Km) was 21 ± 2.4 µM, the kcat was 0.012 ± 8.5e-05 s⁻¹ and the kcat/Km amounted to 733 ± 71.7 M⁻¹ s⁻¹.
